# Measurements: patent US6372459B1, “N-acetyl amino acid racemase” (Degussa AG, priority 1999, dated 2002)
# Assays:
# [1] = standard enzyme test for racemase (AAR) activity, HPLC detection; type: biochemical, Amycolatopsis orientalis subspecies lurida
# Excerpt: The AAR activity was followed up in a coupled enzymatic assay (Diagram 1), in that the formation of a deacetylated amino acid from an N-acetyl-D-amino acid, methionine here, was detected using the HPLC system I. The L-specific […] from pig kidneys or Aspergillus oryzae served as the auxiliary enzymes. [drawing 1]
# Further characterization of the AAR took place using the HPLC system II. Using this system, it was possible to study the activity of the AAR directly. In this way, it was possible to do without the auxiliary enzyme, the acylase, so that it was possible to avoid disruptive interference activity.
# Crude extracts of the superexpression clone, […]. purified enzyme fractions, were used in an enzyme test, in that it was possible to detect the formation of L-methionine from N-acetyl-D-methionine (see Diagram 1), via HPLC:
# The standard enzyme test (modified according to Tokuyama et al., Appl. Microbiol. Biotechnol. (1994), 40, 835-840; ibid., Appl. Microbiol. Biotechnol. (1995a), 42, 853-859), was composed as follows:
# Solvent: Tris/HCl, pH 7.5, 50 mM
# N-acetyl-D-methionine 25 mM
# Acylase I (ASch or AAsp) 1 U
# Protein 2-150 μg purified protein or total protein
# In this connection, acylase I and Co^2+ are present in excess, so that the AAR reaction is the step that determines the speed. Incubation took place for 10-40 min at 30° C. The reaction was then stopped by boiling for 3 min. Analysis of the reaction products took place using HPLC (System I).
# Unless mentioned otherwise, acylase I from pig kidneys (ASch) was used in the enzyme test, and Co^2+, was used as the ion (CoCl2×6H2O). Alternatively, however, acylase I from Aspergillus oryzae (AAsp) was also used.
# In assays that were analyzed using the HPLC system II, the acylase could be left out, since it is possible to separate and analyze N-acetyl amino acids directly, enantioselectively, with this system.
# Other than Co^2+ (CoCl2×6H2O), other bivalent ions, such as MnCl2×4H2O, […], and MgCl2×6H2O were used in various concentrations (0.1-10 mM).
# Substrate inhibition was tested in that the activity of the AAR was mixed with 25 to 400 mM N-acetyl-D-methionine as the substrate.
# [2] = as above; type: biochemical, Amycolatopsis orientalis subspecies lurida; settings: N-unprotected amino acids as substrate
molecule,measurement,setting,value
"AAR from A. orientalis subspecies lurida: N-acetyl amino acid racemase (SEQ ID NO: 2) from Amycolatopsis orientalis subspecies lurida, natural or recombinant enzyme (protein) VKLSGVELRRVRMPLVAPFRTSFGTQSERELLLVRAVTPAGEGWGECVAMEAPLYSSEYNDAAEHVLRNHLIPALLAAEDVTAHKVTPLLAKFKGHRMAKGALEMAVLDAELRAHDRSFAAELGSTRDSVACGVSVGIMDSIPHLLDVVGGYLDEGYVRIKLKIEPGWDVEPVRQVRERFGDDVLLQVDANTAYTLGDAPLLSRLDPFDLLLIEQPLEEEDVLGHAELAKRIRTPICLDESIVSAKAAADAIKLGACQIVNIKPGRVGGYLEARRVHDVCAAHGIAVWCGGMIETGLGRAANVALASLPGFTLPGDTSASGRFYRTDITEPFVLDAGHLPVPTGPGLGVTPIPDLLDEVTTEKAWIGS",optimum pH,[1],8
same,increase in the activity as compared with the activity without metal ion,[1]; 1 mM CoCl2×6H2O in the assay,1250%
same,specific AAR activity after purification,[1]; 2 mM CoCl2×6H2O in the assay,30.6 U/mg
same,specific activity higher than the one found for racemase by Tokuyama and Hatano,[1]; 2 mM CoCl2×6H2O in the assay,approximately 30.8%
same,activity,[1]; 10 mM CoCl2×6H2O in the assay,37.5 U/mg
same,activity with Mg in comparison with cobalt substitution,"[1]; MgCl2×6H2O at 10 mM, standard enzyme assay",about 40%
same,activity with Mn in comparison with cobalt substitution,"[1]; MnCl2×4H2O at 10 mM, standard enzyme assay",about 40%
same,substrate concentration at which substrate inhibition occurs,"[1]; N-acetyl-D-methionine as substrate, 25 to 400 mM tested",greater than 200 mM
same,AAR activity in crude extracts of the expression clone,[1]; crude extracts of E. coli BL21 (DE3) with pAAR3-21I,0.6-1.2 U/mg total protein
same,more active than the racemase from A. sp. TS-1-60,[1]; same CoCl2×6H2O concentration in the assay,152%
same,conversion of amino acids not protected with N-acetyl,[2],does not convert
same,conversion of amino acids not protected with N-acetyl,[2]; listed as AAR,not converted
